Article PMC4380928

Legend:
Assay in all cases: peptide microarray probed with GST protein
Details in all cases: reference: unphosphorylated Y124 15-mer; sites Y124
GRB2 SH2, 75-160 = GRB2 SH2, 75-160 (UniProt P62993)
GRB2 1-217 = GRB2 1-217 (UniProt P62993)
PIK3R3 (p55γ) 1-461 = PIK3R3 (p55γ) 1-461 (UniProt Q92569)

Measured: binding against the reference

TSPAN2 (tetraspanin 2) 15-mers, each centred on one tyrosine (from UniProt O60636) pY124 15-mer
gained: all assays above
